Laboratory results reported in the DeepSol protein solubility set.

experiment: soluble on expression in E. coli; label from the status in PepcDB or PDB records

Soluble on expression in E. coli, not soluble:
MGSDKIHHHHHHMSWHNKVVWSEGLFLRPQLFQQQERYLEHYAHRRAATLSPFFFGFSHYSLDSEALALGKVIVKSASGVFADGTPFDTPGSTPPPAPLTIRAEHLDQLIYLAVPVRVPNAEETTFDNAADSLARNFVFDTELRDTNSIGQGPKTVQLSNLRLRLVPEKELTDAWIGLALTRVKTIRADSSIVLDDTLIPPVAGFGASELLTSWLAKIHELTRLRANSLAIRLTGANGNAGTTAEVSDYLLLQTLNRYEPLLQHLRRVPTTSPADLYALLLSMAGELSTYLRTDSRRPLDSHPAYQHSTPHLCLKPLVDDTHVLLNAVLVRSAQSIELKELGHGMRNAVVDPVDMAGFTAVVLAVHAAMPPDLLQQQFAAQAKAGPSERLPDLVRGHLPGITLQALPVPPRQIPFNAGFVYYELARSGPLWDEVARHGGLALHVAGEFPSLKLELWGVRS
MGSDKIHHHHHHMSYRYNSVVDLIHKQISAGTLKVGDRLPSIRQLSLLTGFSTVTIHHAYELLESHGYCSARPRSGFYLVRTPLQQMGDFPHDGENSIEPISIVDFPHALLLSWQKRTLDAFGAPHPSADLFDCADVDRVMCRLLRRRKAIAANSVGGDPELRLQIAKRAAQRGVVTRPQDIVITGSAIQAFNLCLDALTDPGDVVLVESPSYFPALSSIKRRNLRVIEIYSHPVNGIDPDQLEHLVRNNEIRVAVLMASNHFPTGITYSEDRMKRIVSVAKKNDVTIIANSMLDDITYDSVTDNSLRKFDSGETVLQFSSFECGLSPQYGLGWIVAGKHSQKILAASYLGDYAPNDQRIQQAVAEYLSSRSHDRQLRRIRETLASRMERGLQLLADSLPTGCSVSRPTGGYMCWVRGPQKFTSMTAVLQLHKQNVSILPGSVFSAAARSFENFFALNLSFPWSAENEAKIGSIGDLIAQIVGR
MGSDKIHHHHHHMSYYLRSASLTNYVEVARAVGLDPHQFLRAAKISRDVLLDPDIRIPAKKVGRLLDDSARAAHVDDFGLRMAELRQVSNLGPLAFVVREQPTLRRALESMVRYMGVQNEALAMRMEESEGLLMIRLHILNDQPGTLRQATDLAVGVVYRLLSVCLGASWRPRSICFTHAAPASQATFQRVFGMPCVFNQDFDGIVCVAADLEAPLPSYDPVMAHQVKRYLGTLLAQANTTLPDKVRELVHVLLPSGMCSVDRVAQHLGVDRRTVHRRLAQENTSYSDIVNAARASLVVRYIDNRERPLSEVATLLGFSSLSAFSRWFGGQFGCSVSKWRLQHEGQGRNTA
MGSDKIHHHHHHMTAPFSTQLKRCTTCLLPETHETLVLDSEGVCNICRAQEVKAEINWEERLVHLDKLVAEYRGNYRYDCLIPFSGGKDSTWTLYYLMNRYPGIKPLVVRFNHGFLRPNLRANCDRVFRKLGVDVHDFSPSWKVVQRLMLQSFLEKGDFCWHCHTGIFAYPMQVAIKEQVPLIFWGEPSAEYTAYYNYDQAEEVDEERFNRYVNLGISAEDMLVRLDGYLDERDVEPFRYPPLKELRQLGYRSVCLGSYIPWDVKMQVGKIREELGWKGDLVENVPEDFNYEKIECWMQGVRDYIKYIKRGYTRPTHLAAIDLRNNRISKEEAKAMITQFEGRRPPSLDLFLDYVGLDEEQFYTIAMGHQVSPWQFDPDSIKSGPKTPDFEDWLRGDGLDLVDAEDQLGRWADSCSSCSSSSSCSGG
MGSDKIHHHHHHMTDAPGPLEPLGSTGGPILDRPAFERLTTTHRRALKLHCYRMMGSLHEADDLVQETFLKAWRGRAQFDGRGSPRGWLYTIATNACLNAIKARSSAHRILEEPARPPSEGRAAAGLAAELSWLEPYPDAELPDLIDGEPGPDARYETSEAVRLAFVAAIQLLPPRQRASLLLCDVLGWSALETAQLLGGSTASVNSALQRARATLGERYPQGRPQQRSQPNPEEGVLLERYISAWQAANLDGFIALLREDATYHMPPWRDWYRGRPAIHGFFKTVWGNFAGYRAVATRANGQPAVAIYARRHQEPEWRAQSLHVIEPAYGAIASLTVYVAPLGPGLFAAFGLPPVWSGPQA
MGSDKIHHHHHHMTDHVIAHAFSYRHASRRKPALVDLTLKISRGERVLLLGASGSGKSTLLAAIAGVLADEDGEHSGELQVSGTPGMVLQDPDSQVISSRVGDDVAFGCENMCVPRDQIWPRVTQALAQVGLDLPLDHPTSELSGGQKQRLALAGVIAMGADIVLLDEPTANLDPDGVREVVSNISRAVETTGATMIVVEHRVSTWLDHVDRIIALGPDSRVLADGPARDVIAKHGRELSELGIWVPENDPQLPAALTPTHSDTAIHARELAVGWNQPLGTYGFDIPAGASTVITGANGKGKSTLLLTLAGLLPAHSGRVEVAHNIARGLHTDPLRWKSKELSSRFGFVFQDPEHQFVAATVREEMRVGLHDHNHLARADLLLERLRLDHLAEANPFTLSGGQKRRLSVATILVNTPDVVFLDEPTFGQDRTTFIELVTLLRELTDAGTTVVSITHDELYRRCLGDKEIAL
MGSDKIHHHHHHMTDKLSPRGRPLYLGSRGRHTRFSRIADSVADSFNLSKELTTATLLAAVNSALRGKASITINQDWDEPVNAFFLVCAESGGGKSPSNNFFKQPQLNFQTEWNEQNKNLYLRASVDKKYFAQKLKKHTQQAAELDYGNPKALEQYHAETTRLTEAYEKALRCQPLELFVDDVTNKSLIEAMSRQDGRIAIMEPEVSAFRHIVRAKEVSPILDTILKSFSGERIQLNRAGEPALTIERPILALNIMVQPPIMMQLAKNKAIQGRGILGRFFVTIVEKPRYSRFRHDPIEVPPEVRFEYQDTIYKILTTVEKSKDLLSFSLSDEATEAWLAVKDDVESSIPHNPPPGYGEWKAKAGKHLLHLACLVHIFEHQASNTIIDKRSFELAELLFNFFDKNMWSMLRFMYPEIDFLVAVKALSSGKLYNMGEFSARDMQRALGTYNSTQIAQGIDWLLDNRAIDPIEHRHIENSAKTTMHVGRKKSPTYKIIDAEWHYLRDELL
MGSDKIHHHHHHMTDLAPILAEADKALPQSLDRLFDLVRIASISTDPAYKADCRKAAEWLAQELKGLGFNASVRDTPGHPMVVGHHDADRPDAPHVLFYGHYDVQPVDPLDLWENDPFEPAIKEIEPGRKVITGRGTSDDKGQLMTFVEACRAYKAVHGGLPIKITILFEGEEESGSPSLKPFLAANEDELKCDFALVCDTGMWDRETPAIAAALRGLVGEEVTVTAADRDLHSGLFGGAAANPIHILAKVLADLHDETGRVTIDGFYEGVEETPVNIKASWEKLGRTADKFLNDVGLSIPSGETGRSVLELTWARPTAEVNGITGGYTGEGFKTVIASKASAKVSFRLVGEQDPAKIRENFRAFVKARIPGDCSVEFHEHGASPAIQLPYDSPFLTKAKSALSDEWPKPAEVIGMGGSIPIVGDFQTMLGMDSLLVGFGLVDDRIHSPNEKYELESFHKGIRSWIRILDALAH
MGSDKIHHHHHHMTDLIYNDPDFVQFYDIENQDGRADFDYCVRLARDGGSVLDLGCGTGQLAAEMAQGCNVTGVDPASAMLDVARRRTGGDKVDWVVADARTVRLGRRFDLVLLTGHVFQVFLTDEDQRAVLRTIAEHLGPGGRFIFDTRNPAVEAWLEWTPQRSERMVEHPSLGTVRAWYDADWDAASAVVTYSTFYEIPGGRPILGAESKIAFPKKQDLAGMLDDAGLLVEQWLGDWQGEPYADTSPEIIPIGRLR
MGSDKIHHHHHHMTDSKCYAAIDIGSNAVRLLIKKVKNNENLANKRLSKVMLLRVPLRLGFDVFSLGEVSDAKVMKLRRLMKAFRQLMKIYEVINYRACATSAMRDAQNGKSVIKKVWKDTGINIEVINGQEEARMIYNNHIECLEDRAGNYIYVDVGGGSTEINFLINGELVQSLSYNIGTVRMLSNSVREGSWEQMKSDLTRLTADFQGVNIIGSGGNINKLYRLADKKDKKQSRLPITSLQELYDKLKVLTLEQRMEEFNLKTDRADVIVPAAGIFLIIAGIVKAEYIHVPVIGLADGIIDNLYAIDLKTE
MGSDKIHHHHHHMTEAAEAGNRGFEDYYVNIGFTPDRLVSMLSLTGLSSVHSVVAFYDDRPAGFILNGIRMIGGKQVAWNGGTAVVPELRRQGIGQKLMAATVECYEEQGVELATLEAFRINERAIALYETFGYHIVDQLCFLQHIGALETSFRSKSVGENDYRVARGTAHDVRLLSFYQHTAPWRTQWFALRGGQSILVKDALNHTIGYALYERVFDGEGSLASIVLYQCEAAPGRDDADEIVREALDALFAPHDEPCKRTTFNMPRANERVVRILQEAGFTDAHTADGIPFEQVYMVRKGKDDR
MGSDKIHHHHHHMTEGMNAGLAMPPAALETSGGANQVGVRAYNERLVMSLVRRHGSLSKAEIARRSGLSAQTVTVIMRVLEREKLLVRGEPVRGRVGQPSVPMRLNPDAVYSFGVKIGRRSANLVLMDFVGTIRHEVRRTYPYPMPGLLLDFIVGGISDIEGRLSVAERARIAGVGIAAPFELWSWAEETGAPSEEMDVWRETDLKADVAARIGYPVFIQNDATSACAAELVFGVGPHYPDFVYFFLGSFVGGGIVLNSSLFSGRTGTAGAVGPLPVQRRDGKTVQLLKIASIFVLENLLRDYGQDSQSLWYSPSDWVDYGEPLEIWIRDTAAALAQAIVAAASIIDFSAAVIDGGFPQWVRQRLVVAIQEAARDLDLQGVLMPEIVEGAVGHQARSVGGASLPLFSRYLLDQNVLFKELL
MGSDKIHHHHHHMTELHREAFDYAPNMRRLRAVIAVAEAGSVMRAAEALHLSQPAVTRAVRDLEKELGLALFERHRSGMLCTTAGKIVLHRFRRALQQLIEAETALARLHPEGNFERLPQRLSHRQLTVLVAVADLHNEPLAAKRLGLTQPAVSGNLRDLERLLGIALFLRTQRGMLATDGGAVLIRHAKMALRELSLVSDDLSAWQGEVRGRVVIGTLPLSSSLLVPHAVDALLRELPGLNVTIIEGTYDALFESLRHGEIDILIGALRQAGTSEDTHQQRLFHDRLAVAARQGHPLMKHAALQLSDLLDAQWIAPRQGTPARVSFEQEFRSAGLQPPSVVVESGNLSTIRTLLLDSDRVTLVSPHQVFFEVQSGQLALLPIKLTGTLRPIGITTRADDSPTQALKVLKDILLTLGERMADPSSATRA
MGSDKIHHHHHHMTELLARNADCIVWLARYMERAENLARILGVAETFARDRAGRNWLAVVQINADEERFFARHRVADARTVPHFYILDPDNPNSILSSIKAARENARTLRPMISIEMWRQINRMNTWMGGLSDNAVAPANLAALCEEIKEACQLHVGITEGTFYRDQAHYFYHLGKSIERADQTTRLLDIKYHTLLPRPEDVGSALDISHWNALLKAVAGYQASRRVLAGKITPRSVAAFLLFSDSFPRSVILCVRQMDWLMTQLRTRYHLRGGVKALELLDGLRAALTDHDIDHVIDHGLHEFIDWVQSQLMAIFAEIQDSFCVTRQPSQSQSQ
MGSDKIHHHHHHMTERTLRGQVAVVGVGESEYYRAGHAPDPEFRLLLKAVLAACRDADIDPADIDGFASFADDRNDAVRIATALGVKRLRSTTMQWGGGGGGCAAAVANGAAAIMSGMAQCVLVYRGLAQGQFGRFGQAAPRASISGEMAYQMPYGVLAPPQKFAMKVQRFMHEHGVRREALRAIALASYQHAQANPRAVMHGKPLTAEAYDASRWIVEPFRLFDCCMENDGAGALLLVAAERAKDFPHRPVYLLGAASGGDWRAAASPHNAPHYASANYSGVSGDLYRMARVSPADVGVVQSYENFTGGVAMALSEHGFFHPDEANDFLTPENLVAPSGKLPLNTSGGNLGECYVHGFELVIEAARQVRGESTSQAARHDVALVIGGPMVTPASSLLFGSAATL
MGSDKIHHHHHHMTFLRALLGATGQTLRAALAGLTVKPHSGHPVFPVTWVTPHIAAGPAPVSAAHLEALREQGIVAILNVCEELCTLADTEEAAGFEVRFLPIEDEGAPEPDALEEVLDWLDESVWRGRKVYVHCRWGVGRTGTVLHAYLLRRGLSPRRAEHFLSRLRSRPTSYTQWRSLRRFARRNPALTVREAAVEPGVADAMTPVLRDLARLVQEVERHVEAATPGISPEAFADAPRCGRDHVRCCATPPTLTLAEAAALTAAMDALLSSTQRDELRQKTSRGSGVPCPLLHDQRCLLYEARPLRCRTADMDETARLRLLEEVVADTLDDLDRRVFGLLAGCTPATSPPCFPIVEVLSGRYVATTFRHVACGLNTGKP
